The target of assay [1] is T1, human IL-17A (generated at UCB) (Homo sapiens, UniProt Q16552). As to the kind of experiment: cell-based or functional assay.
Assay [2] addresses T2, human IL-17F (R&D Systems) (Homo sapiens, UniProt Q96PD4). Description: cell-based or functional assay.
The target of assay [3] is human IL-17A/F heterodimer (Homo sapiens, UniProt Q16552;Q96PD4). As to the kind of experiment: cell-based or functional assay.
Assay [4] addresses T3, cynomolgus macaque IL-17A (Macaca fascicularis, UniProt A0A2K5TTB0).
T3 construct: interleukin-17A, cynomolgus macaque; source: generated at UCB
Description: SPR; Biacore T200, CM5 chip; IgG1 captured by F(ab')2 fragment-specific or Fcγ-specific goat anti-human IgG F(ab')2; cytokine titrated over it (10 nM IL-17F or 5 nM IL-17A and IL-17A/F downwards); HBS-EP pH 7.4, 25°C. To be noted: both partners purified.

Assay [5] addresses T4, cynomolgus macaque IL-17F (Macaca fascicularis, UniProt G7P4V0).
T4 construct: interleukin-17F, cynomolgus macaque; source: generated at UCB
Described as above. To be noted: both partners purified.

Assay [6] has as its target T1, human IL-17A (generated at UCB). As to the kind of experiment: SPR; Biacore T200, CM5 chip; Fab captured on immobilised anti-human F(ab')2; cytokine titrated over it; HBS-EP pH 7.4, 25°C. To be noted: both partners purified.
The target in assay [7] is T2, human IL-17F (R&D Systems). The description is as above. To be noted: both partners purified.

Where a chain is given by its changes, count along the chain named.

T1 sequence (Q16552 24-155): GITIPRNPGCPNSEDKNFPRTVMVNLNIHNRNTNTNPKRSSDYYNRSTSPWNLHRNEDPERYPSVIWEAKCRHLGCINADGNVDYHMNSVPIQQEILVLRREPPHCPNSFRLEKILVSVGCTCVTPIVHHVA
T2 sequence (Q96PD4 31-163): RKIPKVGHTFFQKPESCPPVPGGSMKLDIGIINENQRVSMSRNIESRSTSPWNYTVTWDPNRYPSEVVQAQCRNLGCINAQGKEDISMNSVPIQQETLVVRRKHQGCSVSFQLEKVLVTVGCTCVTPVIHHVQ
human IL-17A/F heterodimer, sequence (Q16552 24-155, chain 1 of 2): as the sequence (Q16552 24-155) above
human IL-17A/F heterodimer, sequence (Q96PD4 31-163, chain 2 of 2): as the sequence (Q96PD4 31-163) above

B1: 496.g3 IgG1 (bimekizumab) (antibody, V domains shown)
VH: EVQLVESGGGLVQPGGSLRLSCAASGFTFSDYNMAWVRQAPGKGLEWVATITYEGRNTYYRDSVKGRFTISRDNAKNSLYLQMNSLRAEDTAVYYCASPPQYYEGSIYRLWFAHWGQGTLVTVSS
VL: AIQLTQSPSSLSASVGDRVTITCRADESVRTLMHWYQQKPGKAPKLLIYLVSNSEIGVPDRFSGSGSGTDFRLTISSLQPEDFATYYCQQTWSDPWTFGQGTKVEIK
One may read the Kd as the concentration at which binding is half-saturated. Low values mean higher affinity, high ones lower affinity. In the case of B1, the “IC50 of neutralization of IL-17A (1 ng/mL, with TNF 1 ng/mL): IL-6 production by NHDFs” value in assay [1] turned out to be 0.0004 µg/mL. Further, the “IC50 of neutralization of IL-17F (30 ng/mL, with TNF 1 ng/mL): IL-6 production by NHDFs” value in assay [2] worked out at 0.0321 µg/mL. In assay [3], the “IC50 of neutralization of IL-17A/F (30 ng/mL, with TNF 1 ng/mL): IL-6 production by NHDFs” value stood at 0.0489 µg/mL. For the same molecule, the Kd was determined as 0.0123 nM in assay [4] and 0.345 nM in assay [5].

B2: 496.g3 Fab (Fab, V domains shown)
VH: B1 VH
VL: B1 VL
With B2, binding in assay [6] was characterised by a dissociation constant (Kd) of 0.0072 nM.

B3: 496.g1 Fab (Fab, V domains shown)
VH: B1 VH
VL: B1 VL with R30T, S54R, I56S, D60S, R72T
With B3, the Kd in assay [6] came out at 0.0292 nM; in assay [7], 1.51 nM.
